Assay results from the RNAGym collection of RNA variant scans (doi:10.1073/pnas.2313332121).

B1: TPR t1 (parent)
chain: GACCAAUCUGCCCUCAGAGCUCGAGAACAUCUUCGGAUGCAGAGGAGGCAGGCUUCGGUGGCGCGAUAGCGCCAACGUCCUCAACCUCCAAUGCAUCCCACCACAUGAUGAUGCCUGAAGAGCCUUGGUUUUUUG

Variants of: B1
Assay: polymerase ribozyme fitness, log enrichment relative to wild type (log ratio); higher = more active; in vitro selection for triplet polymerase activity
How it was run: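 Both subunits of a heterodimeric triplet polymerase ribozyme were given their own mutant library, built by PCR and transcribed. Each library was annealed with a biotinylated primer, the partner subunit and triplets, incubated frozen at −7 °C, and its extended constructs gel-excised, captured on streptavidin beads and amplified by RT-PCR, all in one round done in triplicate. Fitness is the logarithm of genotype enrichment relative to wild-type enrichment, with replicates averaged by inverse-variance weighting. That logarithm is base 2, and Illumina-sequenced genotypes needed ≥10 input reads and ≥1 read per output.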

Variant | polymerase ribozyme fitness (log ratio)
GAACAAUCUGCCCUCAGAGCUCGAGAACAUCUUCGGAUGCAGAGGAGGCAGGCUUCGGUGGCGCGAUAGCGUCAACGUCCUCAACCUCCAAUUCAUCCCACCACAUGAUGGUGCCUGAAGAGCCUUGGUUUUUUG [C3A C72U G93U A111G] | -3.35
GAACAAUCUGCCCGCAGAGCUCGAGAACAUCUUCGGAUGCAGAGGAGGCAGGCUUCGGUGGCGCGAUAGCGCCAACGUCCUCAACCUCCAAUGCAUCCCACCACAUGAUGAUGCCUGAUAAGCCUUGGUUUUUUG [C3A U14G A119U G120A] | -1.62
GAACAAUCUGCCCUCAGAGCUCGAGAACAUCUUCGGAUGCAGAGGAGGCAGGCUUCGGUGGCGCGAUAGCGCCAACGUCCUCAACCUCCAAUGCAUCCCACCACAUGAUGAUGCAUGAAGAGCCUUGGUUUUUUG [C3A C115A] | -1.99
GAACAAUCUGCCCUCAGAGCUCGAGAACAUCUUCGGAUGCAGAGGAGGCAGGCUUCGGUGGCGCGAUAGCGACAACGUCCUCAACCUCCAAUGCAUCCCACCACAUGAUGCUGCCUGAAGAGCCUUGGUUUUUUG [C3A C72A A111C] | -1.3
GAACAAUCUGCCCUCAGAGCUCGAGAACAUCUUCGGAUGCAGAGGAGGCAGGCUUCGGUGACGCGAUAGCGCCAACGUUCUCAACCUCCAAUGCAUCCCACCACAUGAUGAUGCCUGAAGAGCCUUGGUUUUUUG [C3A G61A C79U] | -1.27
GAACAAUCUGCCCUCAGAGCUCGAGAACAUCUUCGGAUGCAGAGGAAGCAGGCUUCGGUGGCGCGAUAGCGACAACGUCCUCAACCUCCAAUGCAUCCCCCCACAUGAUGAUGCCUGAAGAGCCUUGGUUUUUUG [C3A G47A C72A A100C] | -2.89
GAACAAUCUGCCCUCAGAGCUCGAGAACAUCUUCGGAUGCAGAGGAGGCAGGCUUCGGUGGCGCGAUAACGCCAACGUCCUCAACCUCCAAUGCAUCCCACCACAUGAUGAUGCCUGAAGAGCCUUGGUUUUUUG [C3A G69A] | -3.74
GAACAAUCUGCCCUCAGAGCUCGAGAACAUCUUCGGAUGCAGAGGAGGCAGGCUUCGGUGGCGCGAUAGCGCCAACGUCCUCAACCUCCAAUGCAUCCUACCACAUGAUGAUGCCUGAAGAGCCUUGGUUUUUUG [C3A C99U] | -3.8
GAGCAAUCUGCCCUCAGAGCUCGAGAACAUCUUCGGAUGCAGAGGAGGCAGGCUUCGGUGGCGCGAUAGCGCCAACGUCCUCCACCUCCAAUGCAUCCCACCACAUGAUGAUGCCUGAAGAGCCUUGGUUUUUUG [C3G A83C] | -2.39
GAACAAUCUGCCCUCAGAGCUCGAGAACAUCUUCGGAUGCAGAGGAGGCAGUCUUCGGUGGCGCGAUAGCGCCAACGUCCUCAACCUCCAAUGCAUCCCACCACAUGAUGAUGCCUGAAGAGACUUGGUUUUUUG [C3A G52U C123A] | -0.759
GAACAAUCUGCCCUCAGAGCUCGAGAACAUCUUCGGAUGCAGAGGAGGCAGUCUUCGGUGGCGCGAUAGCGCCAACGUCCUCAACCUCCAAUGCAUCCCACCACAUGAUGAUGCCUGAAGAGCCUUGGUUUUUUG [C3A G52U] | -1.75
GAACAAUCUGCCCUCAGAGCUCGAGAACAUCUUCGGAUGCAGAGGAGGCAGGCUUCGGUGGCGCGAUAGCGCCAACGUCCUCAACCUCCAAUGCAUCCCACCACAUGAUGAUGCCUCAAGAGCCUUGGUUUUUUG [C3A G117C] | -3.87
GAACAAUCUGCCCUCAGAGCUCGAGAACAUCUUCGGAUGCAGAGGAGGCAGUCUUCGGUGGCGCGAUAGCGACAACGUCCUCAACCUCGAAUGCAUCCCACCAAAUGAUGAUUCCUGAUGAGGCUUGGUUUUUUG [C3A G52U C72A C89G C104A G113U A119U C123G] | -5.02
GAACAAUCUGCCCUCAGAGCUCGAGAACAUCUUCGGAUGCAGAGGAGGCAGGCUUCGGUGGCGCGAUAGCGCCAACGUCCUCAACCUCCAAUGCAUUCCACCACAUGAUGAUGCCUGAAGAGCCUUGGUUUUUUG [C3A C97U] | -2.33
GAACAAUCUGCCCUCAUCGCUCGUGAACAUCGUCGGAUGGAUGGGAGGCAGGCUUCGGUGGCGCGAUAGCGCCAACGUCCUCAACCUCCAAUGCAUCCCACCACAUGACGAUGCCUGAAGAGCCUUGGUUUUUUG [C3A G17U A18C A24U U32G C40G G42U A43G U109C] | -6.6
GAACAAUCUACCAUCAGAGCUCGAGAACAUCUUCGUAUGCAGAGGAGGCAGGCUUCGGUGGCGCGAUAGAGCCAACGUCCUCAACCUCCAAUGCAUCCCACCACAUGAUGAUGCCUGAAGAGCCUUGGCUUUUUG [C3A G10A C13A G36U C70A U129C] | -5.83
GAACAAUCUGCCCUCAGAGCUCGAGAACAUCUUCGGAUGCAGAGGAGGCAGGCUUCGGUGGCGCGAUAGCUCCAACGUCCUCAACCUCCAAUGCAUCCCACCACAUGAUGAUGCGUGUAGAGCCUUGGUUUUUUG [C3A G71U C115G A118U] | -4.97
GAACAAUCUGCCCUCAGAGCUCGAGAACAUCUUCGGAUGCAGAGGAGGCAGGCUUCGGUGGCGCGAUAGCGCCAACGUCCUCAACCUCUAAUGCAUCCCACCACAUGAUGAUGCCUGAAGAGCCUUGGUUUUUUG [C3A C89U] | -1.82
GAACAAUCUGCCCUCAGAGCUCGAGAACAUCUUCGGAUGCAGAGGAGGCAGGCUUCGGUGCCGCGAUAGCGCCAACGUCCUCAACCUCCAAUGCAUCCCACCACAUGAUGAUGCCUGAAGAGCCUUGGUUUUUUG [C3A G61C] | -3.47
GAACAAUCAGCCCUCAGAGCUCGAGAAUAUCUUCGGAUGCAGAGGAGGCAGGAUUCGGUGGCGCGAUAGCGCCAACGUCCUCAACCUCCAAUGAAUCCCACCACAUGAUGAUGCCUGAAGAGCCUUGGUUUUUUG [C3A U9A C28U C53A C94A] | -4.65
GAACAAUCUGCCCUCAGAGCUCGAGAACAUCUUCGGAUGCAGAGGAGGCAGGCUUCGGUGGCGCGAUAGCGCCAACGUCCUCAACCUCCAAUGCAUCCCACCACAUGAUGAUGCCUGAAUAGCCUUGGUUUUUUG [C3A G120U] | -0.479
